Here are results for one molecule from patent publication US20160008398A1, “CONSTITUTIVE EXPRESSION OF COSTIMULATORY LIGANDS ON ADOPTIVELY TRANSFERRED T LYMPHOCYTES” (Memorial Sloan-Kettering Cancer Center, published 2016).

The target of the test is CD28 (human, UniProt P10747). In words: cell-based or functional assay.

B1: CD80 (ligand)
chain: VIHVTKEVKEVATLSCGHNVSVEELAQTRIYWQKEKKMVLTMMSGDMNIWPEYKNRTIFDITNNLSIVILALRPSDEGTYECVVLKYEKDAFKREHLAEVTLSVKADFPTPSISDFEIPTSNIRRIICSTSGGFPEPHLSWLENGEELNAINTTVSQDPETELYAVSSKLDFNMTTNHSFMCLIKYGHLRVNQTFNWNTTKQEHFPDNLLPSWAITLISVNGIFVICCLTYCFAPRCRERRRNERLRRESVRPV
B1: the “Granzyme B recruitment to T-cell tumor cell junctions” value amounted to 2.2 fold, the “NF-kB-luciferase signal in single OKT3-stimulated Jurkat T cells” value was determined as 3.8 fold, the “expansion of CAR-transduced T cells stimulated weekly on LNCaP tumor monolayers” value was about 2 fold and the “expansion of CMV pp65-specific T cells restimulated with HLA-A*0201^+ pp65-transduced Caco-2 cells” value is 209 fold. Moreover, the “expansion of Pz1^+ T cells cocultured weekly with LNCaP tumor monolayers” value came out at 1040 fold enrichment, the “expansion of T cells stimulated weekly with plate-bound OKT3” value was 237 fold greater proliferation and the “in vivo expansion of Pz1^+ T cells in PC3-PSMA tumor bearing mice (bioluminescence)” value was 41 fold higher photon count.
